Laboratory results from article doi:10.1101/2020.04.20.049213 (bioRxiv, 2020).

Target: T1, JARID2 (aa 1-450) (human, UniProt Q92833 1-450, K116me3 (trimethyl-lysine at 116))
T1 sequence: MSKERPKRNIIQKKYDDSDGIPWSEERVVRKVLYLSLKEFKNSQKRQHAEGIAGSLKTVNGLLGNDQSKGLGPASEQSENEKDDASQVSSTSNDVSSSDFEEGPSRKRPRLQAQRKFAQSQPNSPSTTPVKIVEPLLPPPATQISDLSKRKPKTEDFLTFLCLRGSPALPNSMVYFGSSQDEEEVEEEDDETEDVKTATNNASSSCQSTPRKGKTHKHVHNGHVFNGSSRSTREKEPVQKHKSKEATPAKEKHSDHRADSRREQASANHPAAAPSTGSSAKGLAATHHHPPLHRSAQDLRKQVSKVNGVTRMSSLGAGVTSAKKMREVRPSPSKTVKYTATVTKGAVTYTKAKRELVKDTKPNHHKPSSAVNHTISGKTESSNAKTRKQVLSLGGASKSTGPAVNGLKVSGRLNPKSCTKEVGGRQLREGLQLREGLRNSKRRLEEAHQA
Experiment: cryo-EM structure

binding result: binds
B1: EED (aa 80-441) (domain or fragment)
chain: not shown
